Positions count from the first letter of the chain named. In names and notes the source's numbering stands.

Data set [1] deals with the molecule itself. Briefly: cryo-EM structure; apo Ku-Mtb without DNA; 20 mM Tris-HCl pH 8, 75 mM NaCl, 5 mM MgCl2, 2 mM DTT, 8 mM CHAPSO; C2 symmetry imposed; step: protomers to homodimer.
Data set [2] concerns the molecule itself. Briefly: cryo-EM micrographs and 2D class averages.
The target in a further data set is T1, Ku-Mtb L13A/V14A (Mycobacterium tuberculosis, UniProt P9WKD9 1-273, L13A;V14A).
T1 sequence: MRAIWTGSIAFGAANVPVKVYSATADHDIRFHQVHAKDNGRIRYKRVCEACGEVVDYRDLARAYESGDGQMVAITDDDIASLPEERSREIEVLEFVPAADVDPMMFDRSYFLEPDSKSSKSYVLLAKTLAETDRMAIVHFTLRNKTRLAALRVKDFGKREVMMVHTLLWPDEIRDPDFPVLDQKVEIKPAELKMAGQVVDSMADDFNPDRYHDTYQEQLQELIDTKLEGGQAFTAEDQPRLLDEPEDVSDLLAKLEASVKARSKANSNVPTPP
Briefly: cryo-EM. The conditions noted are these: protein: recombinant; tags: His (Ni-NTA purified); chain copies: 2; label: 5' FAM on strand 1; 3' overhang 20 nt on strand 1.

B1: Ku protein from Mycobacterium tuberculosis, wild type (natural protein)
chain: T1 sequence with A13L, A14V
notes: also called Ku-Mtb; KuMtb
Regarding B1, the “stoichiometry N” value in data set [1] stood at 2.

B2: Ku-Mtb S201A/Q197A double mutant (natural protein)
chain: T1 sequence with A13L, A14V, Q197A, S201A
notes: source: over-expressed, purified
Regarding B2, in data set [2], the binding result is “binds”.

B3: FAM-DNA, 32 bp with 3' 20dT overhang (mixed)
DNA 1: GGAATGTAACCATCGTTGGTCGGCAGCAGGGCTTTTTTTTTTTTTTTTTTTT
DNA 2: GCCCTGCTGCCGACCAACGATGGTTACATTCC
For the molecule B3, the binding result in the data set with Ku-Mtb L13A/V14A was “binds”.

The record behind these values is PMC12658125, “Oligomerisation of Ku from Mycobacterium tuberculosis promotes DNA synapsis” (Nature Communications, 2025).
